Measured values: patent US5858752

Target: 32D c13 cells stably expressing the human Fuc-TIV (myeloid) enzyme
Experiment: adhesion of 51Cr-loaded cells to plate-captured selectin/IgM fusion protein

fold binding density relative to untransfected cells: 10 fold
Substance: human E-selectin/IgM fusion protein (from UniProt P16581)
